Experiment in all cases: cell-based or functional assay
The target of one assay is T1, GIP receptor (UniProt P48546).
T1 sequence (looked up): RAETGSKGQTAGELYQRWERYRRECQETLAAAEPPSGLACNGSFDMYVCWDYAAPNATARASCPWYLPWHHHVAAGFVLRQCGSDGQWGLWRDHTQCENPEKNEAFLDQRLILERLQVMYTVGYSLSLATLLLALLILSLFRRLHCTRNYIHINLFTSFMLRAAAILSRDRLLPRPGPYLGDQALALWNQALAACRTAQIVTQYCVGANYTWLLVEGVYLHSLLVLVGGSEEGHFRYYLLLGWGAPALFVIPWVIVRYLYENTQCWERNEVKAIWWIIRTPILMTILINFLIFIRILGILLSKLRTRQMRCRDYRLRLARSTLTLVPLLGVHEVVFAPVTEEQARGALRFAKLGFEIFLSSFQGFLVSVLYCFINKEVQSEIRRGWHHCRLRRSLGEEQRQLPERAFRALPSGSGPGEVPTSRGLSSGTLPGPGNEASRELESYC

The target in a further assay is glucagon receptor (UniProt P47871).
Chain of glucagon receptor (P47871 26-477 limits assumed): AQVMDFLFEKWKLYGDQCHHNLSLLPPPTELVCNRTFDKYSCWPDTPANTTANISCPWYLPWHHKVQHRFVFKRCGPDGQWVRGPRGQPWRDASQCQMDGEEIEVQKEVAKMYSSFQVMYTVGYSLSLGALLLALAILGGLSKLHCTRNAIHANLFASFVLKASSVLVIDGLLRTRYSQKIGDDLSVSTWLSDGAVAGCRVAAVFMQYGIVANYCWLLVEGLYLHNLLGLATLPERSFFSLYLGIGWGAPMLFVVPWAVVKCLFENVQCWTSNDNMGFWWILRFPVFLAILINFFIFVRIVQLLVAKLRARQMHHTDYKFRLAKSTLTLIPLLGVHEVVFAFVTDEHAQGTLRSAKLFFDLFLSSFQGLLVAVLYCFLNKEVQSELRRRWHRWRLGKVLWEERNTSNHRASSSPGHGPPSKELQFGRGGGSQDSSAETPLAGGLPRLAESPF
In the next assay the target is GLP-1 receptor (UniProt P43220).
Chain of GLP-1 receptor (P43220 24-463 limits assumed): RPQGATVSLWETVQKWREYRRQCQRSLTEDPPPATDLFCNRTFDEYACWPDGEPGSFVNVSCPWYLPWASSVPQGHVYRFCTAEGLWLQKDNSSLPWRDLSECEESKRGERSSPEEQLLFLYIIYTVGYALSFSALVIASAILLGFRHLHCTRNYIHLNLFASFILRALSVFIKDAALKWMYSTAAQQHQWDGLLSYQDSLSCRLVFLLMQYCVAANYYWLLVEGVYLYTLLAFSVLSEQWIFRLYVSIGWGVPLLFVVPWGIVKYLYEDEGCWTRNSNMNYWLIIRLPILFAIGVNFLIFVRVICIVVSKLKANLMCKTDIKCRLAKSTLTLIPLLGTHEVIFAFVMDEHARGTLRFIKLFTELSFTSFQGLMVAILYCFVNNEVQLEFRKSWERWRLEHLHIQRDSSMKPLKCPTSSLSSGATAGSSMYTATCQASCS

In the case of A1, Aib2, E3 GIP(1-40) (peptide), the GIP (EC50) in the assay with GIP receptor is 3.89 nM. In the assay with glucagon receptor, “HAibEGT-PLA6, (E16K20) G(1-29) (peptide)” displayed a Glucagon IC50 of 12 nM. The substance also returned a GLP-1 (EC50) with GLP-1 receptor of 3.6 nM. For the substance “HAibEGT-PLA6, (E16K20), C24 G(1-29)/A1, Aib2, E3, K40 GIP(1-40)”, the GIP (EC50) in the assay with GIP receptor was 1.58 nM. For the same substance, the GLP-1 (EC50) in the assay with GLP-1 receptor came out at 11.7 nM. As to “HAibEGT-PLA6, (E16K20), C24, cex, K40(rErEC16) G(1-40)/A1, Aib2, E3, K40 GIP(1-40)”, in the assay with GIP receptor, the GIP (EC50) amounted to 0.379 nM. Moreover, the GLP-1 (EC50) with GLP-1 receptor was 0.363 nM. Regarding “HAibEGT-PLA6, (E16K20), cex, K40(rErEC16) G(1-40) (peptide)”, the Glucagon IC50 with glucagon receptor worked out at 150 nM. The GLP-1 (EC50) in the assay with GLP-1 receptor was found to be 0.76 nM.

The substance “HAibEGT-PLA6, K10(rErEC16), (E16K20) G(1-29) (peptide)” had a Glucagon IC50 in the assay with glucagon receptor of 14.3 nM. Also, the GLP-1 (EC50) in the assay with GLP-1 receptor is 0.19 nM.

In the case of “HAibEGT-PLA6, K10(rErEC16), (E16K20), C24 G(1-29)/A1, Aib2, E3, K40 GIP(1-40)”, in the assay with GIP receptor, the GIP (EC50) came to 0.347 nM. For the same substance, in the assay with GLP-1 receptor, the GLP-1 (EC50) is 0.813 nM. Turning to “PLA6, (E16K20), C24 G(6-29)/A1, Aib2, E3, K40 GIP(1-40)”, the GIP (EC50) with GIP receptor came out at 1.29 nM. Further, in the assay with glucagon receptor, the Glucagon IC50 worked out at 40.1 nM. The GLP-1 (EC50) in the assay with GLP-1 receptor was 367 nM.

On to “[d-Cys5(20kDaPEG), E9]Glucagon(aa5-29)-NH2 (peptide)”, for which, in the assay with glucagon receptor, the IC50(nM) (cAMP, inhibit 0.2 mM Glucagon) turned out to be 14800 nM.

The values are drawn from US20120322725A1.
